# The supplement of paper PMC7877785
# ± gives the uncertainty stated by the source.
# Experiment: self-splicing fitness, log relative to wild type (ln ratio); higher = more splicing; Tetrahymena group I intron in knt gene, E. coli kanamycin selection, DiMSum; sequences stand for … in CUCUCU…GGAGGGAAAAGUUAUCAGGCAUGCACCUGGUAGCUAGUCUUUAAACCAAUAGAUUGCAUCGGUUUAAAAGGCAAGACCGUCAAAUUGCGGGAAAGGGGUCAACAGCCGUUCAGUACCAAGUCUCAGGGGAAACUUUGAGAUGGCCUUGCAAAGGGUAUGGUAAUAAGCUGACGGACAUGGUCCUAACCACGCAGCCAAGUCCUAAGUCAACAGAUCUUCUGUUGAUAUGGAUGCAGUUCACAGACUAAAUGUCGGUCGGGGAAGAUGUAUUCUUCUCAUAAGAUAUAGUCGGACCUCUCCUUAAUGGGAGCUAGCGGAUGAAGUGAUGCAACACUGGAGCCGCUGGGAACUAAUUUGUAUGCGAAAGUAUAUUGAUUAGUUUUGGAGUACUCGUGGUCG
# Method in brief: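 Fitness was computed with DiMSum as the error-weighted combination of replicate fold changes, kanamycin versus none, each normalised to wild type. The library randomised all eight intron nucleotides of the P1ex region, with the intron placed in the knt kanamycin-resistance gene on pET-22b(+) in E. coli BL21(DE3). Six replicate transformations were grown overnight at 37°C or 30°C on LB agar with or without 25 μg/mL kanamycin, plus 100 μg/mL carbenicillin, 50 μM IPTG and 0.2% rhamnose. Pooled colonies were amplicon-sequenced on an Illumina HiSeq 2500.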
Sequence,self-splicing fitness (ln) (30 °C),self-splicing fitness (ln) (37 °C)
UUAAAGCAAUAUUACGGUAC,-2.58 ± 0.22,-1.06 ± 0.22
UUAAAGCAAUAUUACGUUAA,-0.426 ± 0.071,0.14 ± 0.091
UUACAGCAAUAUUACGAAUG,-1.46 ± 0.094,-0.991 ± 0.14
UUACAGCAAUAUUACGCAAU,-1.23 ± 0.15,-2.23 ± 0.4
UUACAGCAAUAUUACGCACC,-2.69 ± 0.21,-0.981 ± 0.23
UUACAGCAAUAUUACGCACG,-1.13 ± 0.12,0.579 ± 0.13
UUACAGCAAUAUUACGCCAU,-2.91 ± 0.25,-2.48 ± 0.27
UUACAGCAAUAUUACGCCUC,-3.31 ± 0.38,-2.03 ± 0.38
UUACAGCAAUAUUACGCGCC,-2.36 ± 0.14,-0.896 ± 0.2
UUACAGCAAUAUUACGCUAU,-3.74 ± 0.25,-2.33 ± 0.21
UUACAGCAAUAUUACGGAAC,-2.88 ± 0.26,-1.88 ± 0.42
UUACAGCAAUAUUACGGACA,-1.02 ± 0.11,-0.885 ± 0.13
UUACAGCAAUAUUACGGAUA,-2.25 ± 0.21,-0.725 ± 0.12
UUACAGCAAUAUUACGGAUC,-4.12 ± 0.34,-2.26 ± 0.2
UUACAGCAAUAUUACGGCCA,-1.02 ± 0.12,0.128 ± 0.13
UUACAGCAAUAUUACGGCGC,-2.88 ± 0.18,-0.508 ± 0.13
UUACAGCAAUAUUACGUCGA,-0.899 ± 0.087,0.0863 ± 0.093
UUACAGCAAUAUUACGUGAA,-1.16 ± 0.054,-0.338 ± 0.066
UUAGAGCAAUAUUACGACUG,-1.13 ± 0.096,0.345 ± 0.14
UUAGAGCAAUAUUACGACUU,-1.32 ± 0.13,-1.77 ± 0.19
UUAGAGCAAUAUUACGAGCA,-2.27 ± 0.42,-1.09 ± 0.32
UUAGAGCAAUAUUACGAGUC,–,-2.53 ± 0.49
UUAGAGCAAUAUUACGAUAG,-0.594 ± 0.1,-0.147 ± 0.14
UUAGAGCAAUAUUACGCAUG,-1.12 ± 0.11,-0.298 ± 0.12
UUAGAGCAAUAUUACGCGCA,-0.808 ± 0.12,-0.112 ± 0.16
UUAGAGCAAUAUUACGCUAC,-2.9 ± 0.41,–

Sequence,self-splicing fitness (ln) (30 °C),self-splicing fitness (ln) (37 °C)
UUAGAGCAAUAUUACGCUGU,-3.47 ± 0.36,-1.56 ± 0.21
UUAGAGCAAUAUUACGGUAC,-3.85 ± 0.26,-2.79 ± 0.4
UUAGAGCAAUAUUACGGUGU,-2.05 ± 0.35,-2.19 ± 0.3
UUAGAGCAAUAUUACGUACU,-3.2 ± 0.34,-1.81 ± 0.31
UUAGAGCAAUAUUACGUAUA,-3.64 ± 0.43,-0.846 ± 0.27
UUAGAGCAAUAUUACGUCGC,-3.05 ± 0.47,-1.76 ± 0.37
UUAGAGCAAUAUUACGUGAU,-3.95 ± 0.28,-2.52 ± 0.22
UUAGAGCAAUAUUACGUGGA,-2.18 ± 0.13,-1.6 ± 0.12
UUAGAGCAAUAUUACGUUGC,-2.58 ± 0.22,-1.25 ± 0.33
UUAUAGCAAUAUUACGAAUU,-3.24 ± 0.33,-0.681 ± 0.25
UUAUAGCAAUAUUACGACAG,-1.09 ± 0.16,-0.548 ± 0.21
UUAUAGCAAUAUUACGAGCA,-2.02 ± 0.17,-1.49 ± 0.17
UUAUAGCAAUAUUACGAGCG,-0.835 ± 0.28,-0.754 ± 0.29
UUAUAGCAAUAUUACGAUCU,-1.74 ± 0.32,-1.17 ± 0.25
UUAUAGCAAUAUUACGCCAG,-1.64 ± 0.25,-0.566 ± 0.27
UUAUAGCAAUAUUACGCGGA,-1.6 ± 0.12,-0.96 ± 0.14
UUAUAGCAAUAUUACGCUAG,-1.92 ± 0.2,-0.0618 ± 0.24
UUAUAGCAAUAUUACGCUUG,-1.46 ± 0.19,-0.162 ± 0.22
UUAUAGCAAUAUUACGGAAA,-2.13 ± 0.22,-1.67 ± 0.23
UUAUAGCAAUAUUACGGAAU,-3.67 ± 0.36,–
UUAUAGCAAUAUUACGGCCC,–,-0.921 ± 0.39
UUAUAGCAAUAUUACGGUUC,-2.77 ± 0.23,-2.16 ± 0.25
UUAUAGCAAUAUUACGUAAA,-1.34 ± 0.19,-1.58 ± 0.22
UUAUAGCAAUAUUACGUCUG,-0.366 ± 0.11,-0.511 ± 0.13
UUAUAGCAAUAUUACGUUUC,-4.48 ± 0.3,-3.31 ± 0.32
UUCAAGCAAUAUUACGACAA,0.0996 ± 0.083,-0.304 ± 0.085

Sequence,self-splicing fitness (ln) (30 °C),self-splicing fitness (ln) (37 °C)
UUCAAGCAAUAUUACGACGG,-1.5 ± 0.11,-0.143 ± 0.12
UUCAAGCAAUAUUACGAUUU,-3.24 ± 0.21,-1.12 ± 0.17
UUCAAGCAAUAUUACGCAAG,-2.1 ± 0.2,-0.676 ± 0.17
UUCAAGCAAUAUUACGCCAA,-0.664 ± 0.11,-0.538 ± 0.11
UUCAAGCAAUAUUACGCCAU,-3.57 ± 0.4,-2.88 ± 0.43
UUCAAGCAAUAUUACGCCGG,-0.231 ± 0.097,-0.469 ± 0.13
UUCAAGCAAUAUUACGCGAG,-2.19 ± 0.096,-1.33 ± 0.1
UUCAAGCAAUAUUACGCGGG,-3.35 ± 0.28,-1.95 ± 0.21
UUCAAGCAAUAUUACGCUGA,-2.5 ± 0.16,-2.33 ± 0.21
UUCAAGCAAUAUUACGCUGU,-2.98 ± 0.17,-1.19 ± 0.14
UUCAAGCAAUAUUACGGACG,-1.48 ± 0.15,-0.868 ± 0.18
UUCAAGCAAUAUUACGGGUA,-0.67 ± 0.085,-0.182 ± 0.08
UUCAAGCAAUAUUACGGUGA,-0.763 ± 0.093,0.168 ± 0.092
UUCAAGCAAUAUUACGUGUA,-1.11 ± 0.056,-0.453 ± 0.059
UUCAAGCAAUAUUACGUGUG,-1.25 ± 0.056,-0.551 ± 0.07
UUCAAGCAAUAUUACGUGUU,-3.23 ± 0.13,-1.72 ± 0.11
UUCAAGCAAUAUUACGUUGC,–,-3.55 ± 0.46
UUCAAGCAAUAUUACGUUUA,-1.49 ± 0.087,-0.461 ± 0.082
UUCCAGCAAUAUUACGAACA,-1.42 ± 0.21,-0.887 ± 0.17
UUCCAGCAAUAUUACGACAA,-0.945 ± 0.13,0.128 ± 0.16
UUCCAGCAAUAUUACGACAU,-2.874 ± 0.018,-1.61 ± 0.035
UUCCAGCAAUAUUACGAGAA,-1.79 ± 0.17,-0.442 ± 0.16
UUCCAGCAAUAUUACGAGGU,-1.96 ± 0.17,-1.87 ± 0.16
UUCCAGCAAUAUUACGAGUU,-3.21 ± 0.13,-1.6 ± 0.092
UUCCAGCAAUAUUACGAUAA,0.0765 ± 0.06,0.459 ± 0.071
